Results taken from the supplement of paper PMC10126150.
± gives the standard deviation of the averaged measurements.

What follows are sequences tested on ATP (assay: switch fluorescence ratio, 500 uM ATP over buffer (Cy3 cluster intensity, sum of 5 cycles each) (fold (ratio)); higher = stronger signal-on switching upon ATP binding; sequences stand for … in TCGTCGGCAGCGTCAGATGTGTATAAGAGACAGTTTTTTTTTTTTTTTTTTTTTTTTT…TC). Details: aptamer strand: ATP DNA aptamer (quencher-CACCTGGGGGAGTATTGCGGAGGAAGG + anchor), 100 nM annealed; ATP concentration: 500 uM.
Summary of the method: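 Imaging in selection buffer was followed by imaging after 15 min with 500 uM ATP at 22 °C, for Cy3-labelled switching-strand clusters annealed to 100 nM quencher-labelled ATP aptamer on a modified Illumina MiSeq flow-cell. Five of these buffer/ATP cycles ran, separated by NaOH stripping and re-annealing. The fluorescence ratio per cluster is summed target-cycle over summed buffer-cycle Cy3 intensity, averaged per switch-domain sequence; clusters outside 100-1000 RFU were removed.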
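Note: ATP exposure 15 min at 22 °C before imaging.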

| Sequence | switch fluorescence ratio |
| --- | --- |
| GGTTAGGCGC | 0.993 ± 0.012 |
| GGTTAGGGG | 0.99 ± 0.028 |
| GGTTAGTTGG | 0.978 ± 0.027 |
| GGTTATAATG | 1.02 ± 0.012 |
| GGTTATAGAC | 0.994 ± 0.012 |
| GGTTATCTTT | 0.982 ± 0.047 |
| GGTTATGGG | 0.993 ± 0.038 |
| GGTTATTTGA | 0.974 ± 0.028 |
| GGTTCAGCGG | 0.959 ± 0.035 |
| GGTTCAGCGT | 0.984 ± 0.015 |
| GGTTCAGGGA | 0.977 ± 0.0099 |
| GGTTCAGGTG | 3.38 ± 0.34 |
| GGTTCCAAGC | 1.06 ± 0.04 |
| GGTTCGACTG | 0.951 ± 0.046 |
| GGTTCGGGTG | 1.075 ± 0.0041 |
| GGTTCGTATT | 0.975 ± 0.038 |
| GGTTCTATTT | 1.03 ± 0.016 |
| GGTTCTTCGG | 0.9938 ± 0.0066 |
| GGTTCTTTAG | 1.015 ± 0.0033 |
| GGTTGAAAAA | 0.985 ± 0.053 |
| GGTTGAAAAG | 0.979 ± 0.015 |
| GGTTGAAGAG | 0.955 ± 0.011 |
| GGTTGACCCC | 0.978 ± 0.027 |
| GGTTGACGCA | 1.01 ± 0.03 |
| GGTTGACTTG | 1.01 ± 0.059 |

| Sequence | switch fluorescence ratio |
| --- | --- |
| GGTTGAGGGC | 1 ± 0.02 |
| GGTTGATACG | 0.959 ± 0.026 |
| GGTTGCGGTG | 0.94 ± 0.083 |
| GGTTGGAAAT | 0.99 ± 0.06 |
| GGTTGGACAG | 0.988 ± 0.011 |
| GGTTGGAGTG | 0.963 ± 0.017 |
| GGTTGGAGTT | 0.984 ± 0.0049 |
| GGTTGGATGG | 0.9995 ± 0.0007 |
| GGTTGGGGAC | 0.971 ± 0.022 |
| GGTTGGTCTA | 0.979 ± 0.028 |
| GGTTGGTTCT | 1.02 ± 0.078 |
| GGTTGTCATG | 0.967 ± 0.032 |
| GGTTGTGAGT | 0.993 ± 0.02 |
| GGTTGTGGGG | 0.998 ± 0.035 |
| GGTTGTTTCG | 0.969 ± 0.038 |
| GGTTTAAGGT | 1.01 ± 0.02 |
| GGTTTAATTC | 1.01 ± 0.012 |
| GGTTTACCGG | 0.987 ± 0.039 |
| GGTTTAGGGC | 0.992 ± 0.066 |
| GGTTTAGTGG | 1 ± 0.031 |
| GGTTTATAAA | 0.971 ± 0.051 |
| GGTTTATGGG | 0.975 ± 0.037 |
| GGTTTATTTG | 1.01 ± 0.016 |
| GGTTTCGATA | 0.96836 ± 1.5e-05 |
| GGTTTCGTCC | 1.02 ± 0.0023 |

| Sequence | switch fluorescence ratio |
| --- | --- |
| GGTTTCTACA | 1 ± 0.034 |
| GGTTTCTTAG | 0.98 ± 0.018 |
| GGTTTGAAAT | 1.04 ± 0.051 |
| GGTTTGAGGA | 0.971 ± 0.012 |
| GGTTTGCGTG | 0.988 ± 0.0043 |
| GGTTTGCTGA | 1.01 ± 0.043 |
| GGTTTGGACG | 0.981 ± 0.037 |
| GGTTTGGGCA | 1.02 ± 0.013 |
| GGTTTGGTAT | 0.99 ± 0.021 |
| GGTTTGGTCA | 1 ± 0.0055 |
| GGTTTGGTTA | 1 ± 0.027 |
| GGTTTGTGGG | 0.968 ± 0.013 |
| GGTTTTAGAT | 0.9977 ± 0.0072 |
| GGTTTTATAC | 1.04 ± 0.02 |
| GGTTTTCAGT | 1.03 ± 0.045 |
| GGTTTTCCAG | 0.946 ± 0.063 |
| GGTTTTGCCA | 0.995 ± 0.034 |
| GGTTTTTTGT | 0.992 ± 0.017 |
| GTAAAAATGG | 1.05 ± 0.12 |
| GTAAAAGAAG | 0.964 ± 0.02 |
| GTAAAAGGCG | 1 ± 0.024 |
| GTAAAAGTTT | 0.979 ± 0.01 |
| GTAAAATGTT | 1.03 ± 0.035 |
| GTAAAGAGTT | 0.992 ± 0.011 |
| GTAAAGGGGA | 1.03 ± 0.044 |

| Sequence | switch fluorescence ratio |
| --- | --- |
| GTAAGACTAA | 0.997 ± 0.011 |
| GTAAGTAAGA | 1.03 ± 0.017 |
| GTAAGTGAGC | 1.034 ± 0.0026 |
| GTAAGTTCTG | 1 ± 0.011 |
| GTAATAGGGC | 0.983 ± 0.054 |
| GTAATAGGTC | 1.013 ± 0.0088 |
| GTAATAGTAT | 1.006 ± 0.0061 |
| GTAATCATTT | 0.9667 ± 0.0093 |
| GTAATCGGCA | 1.02 ± 0.022 |
| GTAATCTCTG | 1.01 ± 0.028 |
| GTAATCTTTA | 0.982 ± 0.029 |
| GTAATGATGG | 0.994 ± 0.036 |
| GTAATGGGGT | 0.966 ± 0.029 |
| GTAATTTAGG | 0.996 ± 0.042 |
| GTAATTTTGG | 0.983 ± 0.037 |
| GTAATTTTTT | 1.02 ± 0.031 |
| GTACACTCAT | 1.04 ± 0.031 |
| GTACATATAA | 1.03 ± 0.011 |
| GTACCCTATG | 1.07 ± 0.029 |
| GTACCTGTCT | 0.99 ± 0.017 |
| GTACGAACTT | 1.32 ± 0.061 |
| GTACTGTGTG | 1.001 ± 0.0037 |
| GTACTTCATA | 1.03 ± 0.013 |
| GTAGAAATGT | 0.981 ± 0.027 |
| GTAGCAACGG | 1.59 ± 0.1 |
